Measured values as given in article PMC1180672.

Key:
[1] = target: scRPA70A (DNA-binding domain A of RPA70) (Saccharomyces cerevisiae, UniProt P22336 181-294); experiment: NMR chemical shift perturbation
[2] = target: hRPA70A (DNA-binding domain A of RPA70) (human, UniProt P27694 181-290); experiment: NMR chemical shift perturbation
Chain of hRPA70A (DNA-binding domain A of RPA70) (P27694 181-290): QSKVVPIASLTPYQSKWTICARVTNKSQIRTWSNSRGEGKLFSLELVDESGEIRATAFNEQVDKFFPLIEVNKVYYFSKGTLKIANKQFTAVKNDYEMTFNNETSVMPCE

Chain of scRPA70A (DNA-binding domain A of RPA70) (P22336 181-294): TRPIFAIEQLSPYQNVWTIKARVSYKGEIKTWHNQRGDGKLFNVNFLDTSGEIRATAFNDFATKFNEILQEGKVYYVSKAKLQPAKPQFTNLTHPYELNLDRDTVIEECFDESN

B1: TT-10 (ssDNA)
DNA: GCGATTGCG
Question: Does B1 bind [1]?
Answer: binds

Question: Does B1 bind [2]?
Answer: binds
